These results are taken from patent publication US20240287161A1 (NATIONAL UNIVERSITY CORPORATION TOTTORI UNIVERSITY, published 2024).

The target of assay [1] is T1, HCoV-OC43 trimeric S protein (amino acids 12-1299) with T4 foldon, histidine tag and strep-tag (HCoV-OC43, UniProt P36334 12-1291).
T1 chain: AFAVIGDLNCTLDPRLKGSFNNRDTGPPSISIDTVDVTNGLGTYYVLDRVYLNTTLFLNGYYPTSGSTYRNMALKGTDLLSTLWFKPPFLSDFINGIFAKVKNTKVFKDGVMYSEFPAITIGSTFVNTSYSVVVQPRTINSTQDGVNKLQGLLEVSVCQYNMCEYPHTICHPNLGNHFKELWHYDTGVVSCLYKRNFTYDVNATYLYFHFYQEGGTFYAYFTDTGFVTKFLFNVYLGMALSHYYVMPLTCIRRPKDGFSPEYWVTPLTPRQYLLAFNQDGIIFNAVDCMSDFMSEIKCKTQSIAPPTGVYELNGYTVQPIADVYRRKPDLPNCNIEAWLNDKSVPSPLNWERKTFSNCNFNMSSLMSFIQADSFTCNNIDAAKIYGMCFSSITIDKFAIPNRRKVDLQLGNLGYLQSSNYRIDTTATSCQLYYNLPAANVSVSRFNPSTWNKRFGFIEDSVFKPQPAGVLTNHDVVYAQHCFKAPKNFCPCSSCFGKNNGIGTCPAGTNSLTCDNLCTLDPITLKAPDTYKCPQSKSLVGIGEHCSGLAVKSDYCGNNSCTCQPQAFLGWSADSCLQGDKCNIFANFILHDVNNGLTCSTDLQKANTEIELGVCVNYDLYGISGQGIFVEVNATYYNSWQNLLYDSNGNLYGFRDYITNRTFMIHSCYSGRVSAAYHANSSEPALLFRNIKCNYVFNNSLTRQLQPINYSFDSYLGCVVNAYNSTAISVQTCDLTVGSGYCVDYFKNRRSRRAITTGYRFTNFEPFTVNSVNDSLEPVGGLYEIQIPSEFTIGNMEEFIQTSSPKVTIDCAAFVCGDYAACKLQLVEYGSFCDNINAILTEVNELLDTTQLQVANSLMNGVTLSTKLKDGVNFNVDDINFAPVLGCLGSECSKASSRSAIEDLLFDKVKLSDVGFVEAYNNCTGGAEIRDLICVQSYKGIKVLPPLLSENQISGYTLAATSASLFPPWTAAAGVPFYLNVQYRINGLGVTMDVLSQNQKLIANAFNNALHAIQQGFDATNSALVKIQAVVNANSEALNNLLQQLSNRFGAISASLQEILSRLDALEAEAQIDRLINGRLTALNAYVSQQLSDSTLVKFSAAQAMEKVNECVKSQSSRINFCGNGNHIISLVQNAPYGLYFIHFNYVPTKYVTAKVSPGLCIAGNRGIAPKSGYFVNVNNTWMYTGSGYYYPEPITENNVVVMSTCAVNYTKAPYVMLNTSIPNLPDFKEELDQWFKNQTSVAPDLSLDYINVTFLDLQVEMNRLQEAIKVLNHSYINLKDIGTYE
Description: ELISA on coated S-trimeric antigen, anti-human IgG-HRP [Human IgG3, NT-193]. Background: In an ELISA, binding on a coated surface is turned into a signal by an enzyme label.

In assay [2] the target is T2, HCoV-HKU1 trimeric S protein (amino acids 13-1293) with T4 foldon, histidine tag and strep-tag (HCoV-HKU1, UniProt Q5MQD0 13-1297).
T2 sequence: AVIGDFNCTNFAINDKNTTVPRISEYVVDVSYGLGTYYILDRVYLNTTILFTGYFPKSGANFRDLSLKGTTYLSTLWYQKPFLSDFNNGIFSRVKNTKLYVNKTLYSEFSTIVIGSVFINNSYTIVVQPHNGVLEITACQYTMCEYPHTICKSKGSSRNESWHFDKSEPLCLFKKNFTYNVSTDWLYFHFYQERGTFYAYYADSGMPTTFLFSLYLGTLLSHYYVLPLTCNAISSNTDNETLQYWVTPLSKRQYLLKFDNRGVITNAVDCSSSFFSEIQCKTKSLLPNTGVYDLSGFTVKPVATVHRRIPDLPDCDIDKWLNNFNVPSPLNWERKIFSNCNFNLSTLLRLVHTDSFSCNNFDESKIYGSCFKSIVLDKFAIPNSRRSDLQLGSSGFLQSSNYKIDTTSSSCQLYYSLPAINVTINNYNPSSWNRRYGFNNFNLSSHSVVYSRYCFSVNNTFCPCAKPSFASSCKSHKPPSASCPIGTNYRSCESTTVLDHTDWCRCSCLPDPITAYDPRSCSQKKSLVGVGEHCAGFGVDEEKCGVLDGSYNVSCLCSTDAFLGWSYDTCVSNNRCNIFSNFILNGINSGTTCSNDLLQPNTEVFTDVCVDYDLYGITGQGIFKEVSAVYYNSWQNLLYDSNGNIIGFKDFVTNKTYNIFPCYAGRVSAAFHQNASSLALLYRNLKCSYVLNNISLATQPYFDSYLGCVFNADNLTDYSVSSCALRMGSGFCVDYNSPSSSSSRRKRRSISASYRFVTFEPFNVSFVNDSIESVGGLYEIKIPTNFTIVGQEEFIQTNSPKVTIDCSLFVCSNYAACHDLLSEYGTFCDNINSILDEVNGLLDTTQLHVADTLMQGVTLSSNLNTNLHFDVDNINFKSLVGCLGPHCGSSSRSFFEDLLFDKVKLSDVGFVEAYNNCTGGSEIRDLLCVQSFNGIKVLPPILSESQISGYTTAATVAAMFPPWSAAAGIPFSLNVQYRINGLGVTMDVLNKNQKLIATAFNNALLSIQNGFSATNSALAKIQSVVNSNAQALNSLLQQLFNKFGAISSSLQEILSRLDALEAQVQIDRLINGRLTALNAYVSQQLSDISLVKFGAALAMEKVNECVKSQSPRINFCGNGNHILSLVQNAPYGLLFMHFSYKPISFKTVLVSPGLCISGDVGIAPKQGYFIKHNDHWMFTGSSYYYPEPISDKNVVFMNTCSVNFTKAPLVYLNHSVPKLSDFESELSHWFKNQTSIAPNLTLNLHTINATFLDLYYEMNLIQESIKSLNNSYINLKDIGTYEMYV
The assay is described as above.

B1: NT-193, human IgG3 subclass (antibody, V domains shown)
VH: EVQLQQWGAGLLKPSETLSLTCAVYGGSFSGYYWSWIRQPPGKGLEWIGEINHSGSTNYNPSLKSRVTISVDTSKNQFSLKLSSVTAADTAVYYCARGWDLDYYYGMDVWGQGTTVTVSS
VL: DIRMTQSPSAMSASVGDRVTVTCRASQGIGNYLAWFQLKPGKVPKRLIYAASSLQSGVPARFSGGGSGTEFTLTISSLQPEDFATYYCLQHGFLPWTFGQGTKLEIK
With B1, the binding result in assay [1] and in assay [2] was “no binding (tested: 1000 ng/ml)” throughout.
